Experimental data reported in paper PMC6002344.
Ends that are not written are not given here. * marks the point of attachment. Dansyl = CN(C)c1cccc2c(S(=O)(=O)*)cccc12

Molecular target: PDZ1 NHERF1 Y38W
Test: FRET or BRET; equilibrium fluorescence titration, FRET between Trp38 (donor) and dansyl (acceptor), excitation 280 nm; 50 mM Na phosphate, pH 7.2, 300 mM NaCl, 5 mM DTT, 20% DMSO, 25 °C; without RS5517

Binder: Dansyl-NDSLL [Dansyl-NDSLL, dansylated peptide of the C-terminal sequence of the β2-adrenergic receptor]
- Kd: 10 µM
